Patent US20250019450A1 (DIAGONAL THERAPEUTICS, published 2025)

T1: human IL-12Rβ2, Acro (BLI analyte) (human, UniProt Q99665 24-622, limits assumed)
T1 sequence (looked up): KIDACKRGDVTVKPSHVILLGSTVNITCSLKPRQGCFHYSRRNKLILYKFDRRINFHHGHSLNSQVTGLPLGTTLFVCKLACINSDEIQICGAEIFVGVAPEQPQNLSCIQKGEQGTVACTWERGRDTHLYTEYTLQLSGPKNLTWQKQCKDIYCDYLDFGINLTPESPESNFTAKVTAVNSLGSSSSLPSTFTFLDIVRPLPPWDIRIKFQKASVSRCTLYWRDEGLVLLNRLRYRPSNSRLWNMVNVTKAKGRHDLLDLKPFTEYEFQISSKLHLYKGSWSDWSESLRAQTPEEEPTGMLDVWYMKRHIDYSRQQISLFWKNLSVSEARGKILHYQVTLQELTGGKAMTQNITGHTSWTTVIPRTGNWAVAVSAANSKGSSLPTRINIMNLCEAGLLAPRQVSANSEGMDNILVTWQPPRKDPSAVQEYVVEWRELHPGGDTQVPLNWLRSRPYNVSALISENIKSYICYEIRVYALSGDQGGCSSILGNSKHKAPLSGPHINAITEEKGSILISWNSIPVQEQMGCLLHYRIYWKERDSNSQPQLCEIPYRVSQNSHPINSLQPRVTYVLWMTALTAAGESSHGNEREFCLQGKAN


Columns and labels:
[1] = biological target: human IL-12 receptor (IL-12Rβ1 and IL-12Rβ2) on HEK-Blue IL-12 cells (human, UniProt P42701 24-662; Q99665 24-862); assay: cell-based or functional assay
[2] = biological target: human IL-12Rβ1, Acro (BLI analyte) (human, UniProt P42701 24-545); assay: BLI (Octet), antibody on AHC tip
[3] = biological target: T1, human IL-12Rβ2, Acro (BLI analyte); assay: BLI (Octet), antibody on AHC tip

Row | Binder | EC50 [1] | Max Absorbance [1] | Kd [2] [nM] | Kd [3] [nM]
1 | DGL444 (bispecific antibody, human IgG1, lambda, 195B1 x 85802_08F20A) heavy 1: not shown heavy 2: QVQLVQSGAEVKKPGASVKVSCKASGYTFIGYYIHWVRQAPGQGLEWMGWINPHSGGTNYAQKFQGRVTMTRDTSISTAYMELSRLRSDDTAIYYCTKEANNWGYAFDIWGQGTMVTVSSASTKGPSVFPLAPSSKSTSGGTAALGCLVKDYFPEPVTVSWNSGALTSGVHTFPAVLQSSGLYSLSSVVTVPSSSLGTQTYICNVNHKPSNTKVDKKVEPKSCDKTHTCPPCPAPEAAGAPSVFLFPPKPKDTLMISRTPEVTCVVVDVSHEDPEVKFNWYVDGVEVHNAKTKPREEQYNSTYRVVSVLTVLHQDWLNGKEYKCKVSNKALPAPIEKTISKAKGQPREPQVCTLPPSRDELTKNQVSLSCAVKGFYPSDIAVEWESNGQPENNYKTTPPVLDSDGSFFLVSKLTVDKSRWQQGNVFSCSVMHEALHNRFTQKSLSLSPG light: not shown | 1.5e-10 M (implied) | 0.61 | 8.96 | 0.386
2 | DGL601 (bispecific antibody, human IgG1, lambda, 85801_04M04A x 19B2) heavy 1: not shown heavy 2: QVQLVESGGGLVQPGGSLRLSCAASGFTFSNYAMSWVRQAPGKGLEWVSAINSDGTSTSYADSVKGQFTISRDNAKNTLYLQMNSLKPEDTAVYYCTKWEGDTDSDYKFKDYWGQGTQVTVEPKSSDKTHTCPPCPAPEAAGAPSVFLFPPKPKDTLMISRTPEVTCVVVDVSHEDPEVKFNWYVDGVEVHNAKTKPREEQYNSTYRVVSVLTVLHQDWLNGKEYKCKVSNKALPAPIEKTISKAKGQPREPQVCTLPPSRDELTKNQVSLSCAVKGFYPSDIAVEWESNGQPENNYKTTPPVLDSDGSFFLVSKLTVDKSRWQQGNVFSCSVMHEALHNRFTQKSLSLSPG light: SSELTQDPAVSVALGQTVRITCQGDSLSSYYAGWYQQKPGQAPVLVIYGKNNRPSGIPDRFSGSSSEDTASLTITGAQAEDEADYYCNSRDSSDNHLVFGGGTKLTVLGQPKAAPSVTLFPPSSEELQANKATLVCLISDFYPGAVTVAWKADSSPVKAGVETTTPSKQSNNKYAASSYLSLTPEQWKSHRSYSCQVTHEGSTVEKTVAPTECS | 6.6e-11 M (implied) | 0.79 | 1.63 | 0.682
3 | DGL487 (bispecific antibody, V domains shown, 67B1 x 190B2) V domain 1: QVQLVESGGGLVQAGGSLRLSCAASARIFNSYAVAWFRQTPGKEREFVASISWSGGSTNYADSVKGRFTISRDNAKNTVFLQMNSLKPADTAVYYCAADRNYYPSVLGKYTYWGQGTQVTVEP V domain 2: QVQLQESGPGLVKPSQTLSLTCTVSGGSITTNYYYWSWIRQPPGKGLEWMGAIAYSGSTYYSPSLKSRTSISRDTSKNQFTLQLSSVTPEDTAVYYCASGINFYSNYPTLNEYDYWGQGTQVTVEP | 3.1e-09 M (implied) | 0.64 | 5.49 | 16.1
4 | DGL495 (bispecific antibody, V domains shown) V domain 1: EVQLVESGGGLVQAGGSLRLSCAASGLTFRNYAMAWFRQAPGKEREFVAGITWGGGLTHYVDSVKGRFTISRDNGKNTVYLQMNSLKSEDTAVYYCAGKTQGSTWYHLTPDGYDYWGQGTQVTVEP V domain 2: QVQLVESGGGLVQPGGSLRLSCAASGFTFSNYAMSWVRQAPGKGLEWVSAINSDGTSTSYADSVKGQFTISRDNAKNTLYLQMNSLKPEDTAVYYCTKWEGDTDSDYKFKDYWGQGTQVTVEP | 6.4e-10 M (implied) | 0.96 | 10.7 | 0.77
5 | DGL606 (bispecific antibody, V domains shown, 238B1 x 219B2) V domain 1: QLQLVESGGGLVQPGGSLRLSCAASGFTFSSYGMSWVRQAPGKGLEWVSYISAGGGTTTYVDFVKGRFTISRDNAKNMLYLQMNSLKPEDTAVYYCVHAADGSRGQGTQVTVEP V domain 2: QVQLEESGGGLVQAGGSLRLSCAASGRTFSSYVVGWFRQAPGKEREFVGRISWSGARTYYADSVEGRFTISRDNAKNTVYLQMNSLKPEDTAVYYCAADLKWEVLLSEHYEYWGQGTQVTVEP | 8.8e-09 M (implied) | 0.92 | 2.68 | 6.03
6 | DGL514 (bispecific antibody, V domains shown, 97B1 x 67B2) V domain 1: QVQLVESGGGLAQAGGSLRLSCAASGRTFSNDDMAWFRQAPGKEREFVAHIDRNAASTNYADSVKGRFTISRDNAKNTVYLQMTRLKPEDTAVYYCAADPDHFGTTWYQQYTYWGPGTQVTVEP V domain 2: QVQLVESGGGLVQPGGSLRLSCAASGFTFSNYAMSWIRQGPERGFEWVSRINSGGGTTSYADSVKGRFTISRDNAKNTLYLQMNSLKPEDTAVYYCAKHSHPDYSSNYYRPGQGTQVTVEP | 3.5e-11 M (implied) | 0.85 | 9.86 | 5.48
7 | DGL515 (bispecific antibody, V domains shown, 97B1 x 85B2) V domain 1: QVQLVESGGGLAQAGGSLRLSCAASGRTFSNDDMAWFRQAPGKEREFVAHIDRNAASTNYADSVKGRFTISRDNAKNTVYLQMTRLKPEDTAVYYCAADPDHFGTTWYQQYTYWGPGTQVTVEP V domain 2: QVQLVESGGGLVQAGGSLRVSCAASGRIPSLNTMAWYRQAPGKQREFVAFITNGGTTNYVDSVEGRFSISRDNTKNAVDLQMNSLKPEDTGVYYCNVQISQYPYNYWGQGTQVTVEP | > 100 nM | 0.64 | 20.8 | < 0.001

Continued by falling Kd [2], values first:

Row | EC50 [1] | Max Absorbance [1] | Kd [2] [nM] | Kd [3] [nM] | Binder
8 | 4.5e-10 M (implied) | 0.69 | 59.5 | 0.706 | DGL534 (bispecific antibody, V domains shown, 115B1 x 19B2) V domain 1: QVQLVESGGGLVQAGGSLRLSCLASGRTSNYFMGWFRQAPGKEREFVAAISRSGGGTWYADSVKGRFAISRDNAKNTVNLQMNSLKREDTAVYYCAADRRTGTSVYTVDEYDYWGQGTQVTVEP V domain 2: QVQLVESGGGLVQPGGSLRLSCAASGFTFSNYAMSWVRQAPGKGLEWVSAINSDGTSTSYADSVKGQFTISRDNAKNTLYLQMNSLKPEDTAVYYCTKWEGDTDSDYKFKDYWGQGTQVTVEP
9 | 7e-09 M (implied) | 0.61 | 27.4 | 11.8 | DGL607 (bispecific antibody, V domains shown, 86B1 x 278B2) V domain 1: QVQLVESGGGLMQAGGSLRLSCALSRGIFSAYAMGWFRQVQGKEREFVSGISRSGSTTDYVDTAKGRFTISRDNARDTVYLQMNSLKPEDTAVYYCAAVTGTFPSSTYHNANAYHHWGQGTQVTVEP V domain 2: QVQLVESGGGLVQAGGSLKLSCAASGGTFSSYAMGWFRQAPGKEREFVAVIMRSGDTTAYVDSVKGRFTVSRDNAKNTVYLQMNSLKPEDAAVYFCAAGRPVTRTYYHTYTYPHDYDYWGQGTQVTVEP
10 | 3.3e-10 M (implied) | 0.93 | 7.17 | 0.772 | DGL481 (bispecific antibody, V domains shown, 67B1 x 19B2) V domain 1: QVQLVESGGGLVQAGGSLRLSCAASARIFNSYAVAWFRQTPGKEREFVASISWSGGSTNYADSVKGRFTISRDNAKNTVFLQMNSLKPADTAVYYCAADRNYYPSVLGKYTYWGQGTQVTVEP V domain 2: QVQLVESGGGLVQPGGSLRLSCAASGFTFSNYAMSWVRQAPGKGLEWVSAINSDGTSTSYADSVKGQFTISRDNAKNTLYLQMNSLKPEDTAVYYCTKWEGDTDSDYKFKDYWGQGTQVTVEP
11 | 2.9e-09 M (implied) | 0.68 | 6.83 | 7.4 | DGL482 (bispecific antibody, V domains shown, 67B1 x 64B2) V domain 1: QVQLVESGGGLVQAGGSLRLSCAASARIFNSYAVAWFRQTPGKEREFVASISWSGGSTNYADSVKGRFTISRDNAKNTVFLQMNSLKPADTAVYYCAADRNYYPSVLGKYTYWGQGTQVTVEP V domain 2: QVQLVESGGGLVQPGGSLRLSCAASGFTFSSKAMHWFRQAPGKGLEWVSSINSGGAITYYKDSVKGRFTVSRDNAKNILYLEMNSLKPEDTALYYCATDTDGRTRGQGTQVTVEP
12 | 4.6e-10 M (implied) | 0.74 | 2.25 | 1.87 | DGL605 (bispecific antibody, V domains shown, 238B1 x 93B2) V domain 1: QLQLVESGGGLVQPGGSLRLSCAASGFTFSSYGMSWVRQAPGKGLEWVSYISAGGGTTTYVDFVKGRFTISRDNAKNMLYLQMNSLKPEDTAVYYCVHAADGSRGQGTQVTVEP V domain 2: QVQLVESGGGLVQPGGSLRLSCAASGFTFEPYDMSWFRQAPGKGPEWVSAIDKGGGAGATYYADSVKGRFTISRDNAKKTLYLQMKSLKPEDTAVYYCAITAGPYSDSTPRVAYRGEGTQVTVEP
13 | > 100 nM | 0.91 | 1.78 | 2.34 | DGL568 (bispecific antibody, V domains shown, 233B1 x 13B2) V domain 1: QVQLVESGGGLVQAGGSLRLSCAASRSISSFNEMAWYRQAPGEQRELVATIVSTVGFTNYADSVKGRFTISRDNAKNTVYLQMNSLKAEDTAVYYCNARRISTDYWGQGTQVTVEP V domain 2: QVQLVESGGGLVRPGGSLRLSCAASGFTFSSNGMHWFRQAPGKGLEWVSSIGSGGTSIYYADSVKGRFTISRDNAKNTLYLQMNSLKSDDTAVYYCSKEVTGATRGQGTQVTVEP
14 | > 100 nM | 1.44 | 1.38 | 7.66 | DGL570 (bispecific antibody, V domains shown, 233B1 x 64B2) V domain 1: QVQLVESGGGLVQAGGSLRLSCAASRSISSFNEMAWYRQAPGEQRELVATIVSTVGFTNYADSVKGRFTISRDNAKNTVYLQMNSLKAEDTAVYYCNARRISTDYWGQGTQVTVEP V domain 2: QVQLVESGGGLVQPGGSLRLSCAASGFTFSSKAMHWFRQAPGKGLEWVSSINSGGAITYYKDSVKGRFTVSRDNAKNILYLEMNSLKPEDTALYYCATDTDGRTRGQGTQVTVEP
